Assay: soluble on expression in E. coli; label from the status in PepcDB or PDB records

Sequence	soluble on expression in E. coli
MSLDEGRTPILGEHPRPTMVRDNCTMLNGWWDYAIVSIPEDETAPKWRKTAAMLTRDEAVRAVKETAIPQTFDGKILVPFSPESALSGVHQTIYPDNLLWYRTVVHPVTLGGEETVRQIGDANRLILHFEAVDYVCACYVNGQLAGTHVGGYLPFDVDISAFIDPDDAFEIALCVYDPNDSGTQLRGKQKIEREGIWYTAQSGIWQSVWLEIVPEAYLRTLTLKGASDGKLFVRAEIGGDKPNAKLHIVVTDPADGTVVADETLPAGVRKVRAEIATAAEHLWSPADPYLYDVRAELRYGSAKPAETAGDAAVVQSQPMDVVSSYCAFRSVEIKPDTKGVARFHLNGKPLFVKGVLDQGYWPDGLMTAPDDEALTHDITAMKNAGFNMLRKHIKIESARWYYHCDRLGMLVWQDAVSGGGTDGEYNAWTTNRKPTLIRSTWNKFRDDTAKHFTALGADDPIYRRDWSRTCDAMVHMLGGHPSIVTWTLFNEGWGQFDACDATERIHALDPTRPIDATSGWYDQHCGDYHSVHNYFRPLEIYPDKGPLRGYVAEFEKKHRRRRRAAHYVVLPVARHGVRAFVISEFGGLAQLVPEHAAVSRAYGYGEYDSIDDWRAAVRSVLASAAALESRGLAGYVYTQVSDVEEELNGLLTYDRRVDKFAEEGHHHHHH	not soluble
MASMTGGQQMGRGSSTSLYKKAGLMPSPMEDIEEILITEEQLKAKVKELGEMITRDYEGKDLVLIGVLKGAIMFMSGLSRAIDLPLSIDFLAVSSYGSSTKSSGIVKIIKDHDIDIEGKDVLIVEDIIDSGLTLAYLRETLLGRKPRSLKICTILDKPERREADVKVDYCGFKIPDKFVVGYGLDYAEKYRNLPFIGVLKPELYK	soluble
MVKSPGASPERKKVKIDVYPMVVKDPQAREINETLLFDYTTALSSFETPTEEQLLVSEGDAFRHHPNEDVEQYFRASAQWGVPAIAWNIVRPAFLWKLEFCITEFMNVEKKKKEAAANSAQANSEVEKIAESPVKEKLSILGHKVNLIKTTPVVFSTEESMEFVLSKAKSFDGFPFTWQRLCELLIEPMRHYNTIDKFLRAVDKVINVVTTINENGGRSFGDWDLPNSQQFHLENTFFGVVDEVEMMELEKVKHDFQSSSSPSEEPLDMSQKSMPAPRVSTASPDPPSFVLPTARSPINTSPSSSPKASSPKASSPKAASPVSSPKSPVIQDQSPKKEDAKEGEGEIVHEEEMPEETLEVETKNEVNKEDADMEIGAE	not soluble
MKTIGLLGGMSWESTIPYYRLINEGIKQQLGGLHSASLLLHSVDFHDIEVCQRRDEWDKAGDILAQAAHGLQQAGAEGIVLCTNTMHKIAHVIESRCSLPFLHIADATGRAIARQGLHRVALLGTRYTMEQDFYRGRLEQQFAIETIVPEADDRARINQVIFDELCQGTFTDASRHYYLQVIEQLAAQGAQGVIFGCTEIGLLVPQTQSALPVFDTTAIHAADAVSFMLSSSAPE	soluble
MMRKLKTLPPTLRDKNRYIAFEIISDGDFTKDEVKELIWKSSLEVLGETGTAIVKPWLIKFDPNTKTGIVRSDREYVEYLRFALMLVSEFNGKRLIIRTLGVSGTIKRLKRKFLAKYGWK	soluble
MRTSSGQILTVTKEISLQASPTEIWSELIHINEVDSIEKKSIISSTLGFPRHIRTHLDTARVGGKRTAYYEKGLTFEETITAYEPERLMILDIKTDPDKISAQVMDEHILIGGKHLDILEDTYELQALSNGCSKLKLTSKFYINTPFNWYAGLWGNYLMSDILKNELELIKNRAEAKLEHHHHHH	soluble
MVTEAMKAKAEVYHGDKTCREKFGSLLSEIGLPNRLLSNKEIKECGYVKDTGFVWLKHKEKKKEDQKRRYQDLLRFDNVVVCFEDEVTAYFEPNRIKKLTGVKAKEFMVWISLGEIQVNRSSGLITFKTEVGLLSKSLPLSVFEDVHGDDHDLKEKPKKELKLNKTKIYLY	not soluble
MGSDKIHHHHHHMIEYYNFNKSELEKHSRIPLIVKKNNEEIFISLALEMVELIKENNEKNEKTVIICPVGPVGQYPHFVRLVNQFKIDLSNVWFINMDEYLLEDLHWIDVVHPLSFRGFMQKNVYSQIHPTLIMSEEQRIFPDPLDIDSISNKIKELGKIDLCIGGIGLNGHIAFNEPDSTLTVQEFLKLGSRVLPISVETKVMNGLTVLKGAVEEVPNYCVTIGMSEIFQAKKIRLAVFRDWHHAVIRKTVCSKPDTGFPSTLMQIHTNCSIYLNESLAN	not soluble
MSLNIKRFVSWDCVNGIKGVLNENGKFSNNPMGVLNWIKAQTSEIPTILLVRDFHKFYDDPSISRTIKELSSSLRETNNNLILSSHILPSSEELDDLITILNLPLPDLSELTALIKKIAFNTDSDLSEQDLNELAIASSGLSEIKVKQVTAKALAQRGKISEGHHHHHH	not soluble
MSLAELNFKAIEEKWQKRWLEAKIFEPNIRDKPKEKKFYITVAFPYLSGHLHVGHARTYTIPDVIARFKRMQGYNVLFPMAWHITGSPIVGIAERIKNRDPKTIWIYRDVYKVPEEILWTFEDPINIVKYFMKAAKETFIRAGFSVDWSREFYTTSLFPPFSKFIEWQFWKLKEKGYIVKGAHRVRWDPVVGTPLGDHDLMEGEDVPILDYIIIKFELRENGEVIYLPAATLRPETVYGVTNMWVNPNATYVKAKVRRKDKEETWIVSKEAAYKLSFQDREIEVIEEFKGEKLIGKYVRNPVSGDEVIILPAEFVDPDNATGVVMSVPAHAPFDHVALEDLKRETEILEKYDIDPRIVENITYISLIKLEGYGDFPAVEEVNKLGIKSQKDKEKLEQATKTIYKAEYHKGIFKVPPYEGKPVQEVKEAIAKEMLEKGIAEIMYEFAEKNVISRFGNRAVIKIIHDQWFIDYGNPEWKEKARKALERMKILPETRRAQFEAIIDWLDKKACARKIGLGTPLPWDPEWVIESLSDSTIYMAYYTISRHINKLRQEGKLDPEKLTPEFFDYIFLEEFSEDKEKELEKKTGIPAEIIHEMKEEFEYWYPLDWRCSGKDLIPNHLTFFIFNHVAIFREEHWPKGIAVNGFGTLEGQKMSKSKGNVLNFIDAIEENGADVVRLYIMSLAEHDSDFDWRRKEVGKLRKQIERFYELISQFAEYEVKGNVELKDIDRWMLHRLNKAIKETTNALEEFRTRTAVQWAFYSIMNDLRWYLRRTEGRDDEAKRYVLRTLADVWVRLMAPFTPHICEELWEKLGGEGFVSLAKWPEPVEEWWNETIEAEEEFIRSVMEDIKEIIEVAKIENAKRAYIYTAEDWKWKVAEVVSEKRDFKSSMEELMKDSEIRKHGKEVAKIVQKLIKERTFDVKRINEEKALREAKEFMEKELGIEIIINPTEDKGGKKKQAMPLKPAIFIEEGHHHHHH	not soluble
MTTSSHGLEKAMELAKFSKSQKERAREILEAGLLEATYGHLAPSSNFVGGMCVGNVSPGGEPVNLNAKVTGYLPKIKEMAEKHGVAQYVGILAAQMMQESQGEGNDPMQAAEGHYGDLSSSCIGLKGSARIGCIKDPNISIEAGVQEFKDVLAKANGDIALALQSYNYGPGFISYALAKGGYSEETAIAFSREHAGENPAGCSDPNNFRTKVGACYGDFTYVSKILKYYKDLGCVTAGDGEWISDKGWKWPTKSGRITDTFDAVRNGKQHNAVDIGAMTAGKPGDPVWSMEAGVVTAQTGYVNYGGLGVYIDHGNGIVSRYLHLSKISVTPGTMVTKGQIIGEMGGSNYVGGVLNMLGYAVHLDFQIRINDQPTDPMKFFKKNDDPGLSSGGSPTMTNAKRQKVLEEAKKWLGQGKVRYVLGDRNPPGGTSDCSGFTQYVFRTSIGVQLGDWTGAQVGQGKQVPDINHAQPGDLIFYENPGHVAIYMGNQKMIHIGDNKGVQITGLNYTARGQHMTQIRNVID	not soluble
GSHMASMTGGQQMGRGSMNTEELQVAAFEIILNSGNARSIVHEAFDAMREKNYILAEQKLQEANDELLKAHQAQTDLLQEYASGTEIKIEIIMVHAQDHLMTTMTLREVAIEMLELYKKS	soluble
MSLRGIRLQQPAGLASLSSVALPDPGQPAAGQIRVRLHASSLNFHDLGIVSGQMPTADGRIPMSDGAGVVEAVGEAVSDFAVGDHVVSTFFPQWLDGEPLHAGFATTPGDGVDGYARSAVVAAAQAFTHAPRGYSHAEAATLTTAGVTAWRALVVNGRIKAGDTVLVLGTGGVSIFALQFAKAMGAMVIVTSSSDQKLETARTLGADHCINYRQHTEWAAQVLEITNGRGVDHVVEVGGPGTLAQSIKAARVGGHIALIGVLTGAAGPVPTAEMMGRQQRLQGLVVGSRRHQQELVRALDGLPLRPVIDRSFALEDIAEAFALQHAGGHLGKIVLEFEGHHHHHH	soluble
TDQGSTGIYYISIEGLVYPIRLEKEYINSFSLSPDEQHFIASVTKPDRPSELYSIPLGQEEKQLTGANDKFVREHTISIPEEIQYATEDGVMVNGWLMRPAQMEGETTYPLILNIHGGPHMMYGHTYFHEFQVLAAKGYAVVYINPRGSHGYGQEFVNAVRGDYGGKDYDDVMQAVDEAIKRDPHIDPKRLGVTGGSYGGFMTNWIVGQTNRFKAAVTQRSISNWISFHGVSDIGYFFTDWQLEHDMFEDTEKLWDRSPLKYAANVETPLLILHGERDDRCPIEQAEQLFIALKKMGKETKLVRFPNASHNLSRTGHPRQRIKRLNYISSWFDQHL	not soluble
MAHHHHHHMGTLEAQTQGPGSMNAGLDQVDPIWHSIRAEAEEATRNDPVLGAFLYATILNQPSLEEAVMHRIAERLGHPDVSADILRQTFDTMLEANPEWSHVLRVDIQAVYDRDPAYSRFMDPVLYLKGFHAIQTHRLAHWLYKQGRKDFAYYLQSRSSSIFQTDIHPAARLGSGLFLDHATGLVVGETAVVEDNVSILHGVTLGGTGKSSGDRHPKIRQGVLIGAGAKILGNIQVGQCSKIAAGSVVLKSVPHNVTVAGVPARIIGETGCTEPSRVMDQMLGDGI	soluble
MGSDKIHHHHHHMSRPAITAIPVFKLYGETTAWPTPDLIHCESIPERSRMHDWEIKPHRHGDLVQLLYVQSGKAMLKVEDRVRKVETASLQVVPALSVHTFRFAEDIQGHILSLAKPLVEQLETTLDSSAMRTARCYELGADSHYVDTLFSAIAREYRQPRAGRDLMLHSLINVLVVWLSRRNSEEAGEQVQTMDRGREHLQVFMHQLETCFREHWSIEQHAQAMGISAAHLNALCRRLCDQSALQIISQRLLLEAKRNLIYTTLTINQVSDSLGFSEPAYFSRFFKRATGQSPREFRQQK	not soluble
MGSDKIHHHHHHMARARTQYKCRSCGYISASYLGRCPNCGAWNQFEKESQEVRQTSTKATPSRLMASVGAKEAVKMSTVKAEKEERVLTKSSELNRVLGGGIVPGSLVLIGGDPGIGKSTLMLQIMSELAEKYKVLYVSGEESASQIKLRADRLGLGQSPMLLYPESNMEHIRDQIDDVKPDFVVIDSIQTMNEPSLDSMVGSASQVREVTAELMKIAKLDQVTVFVIGHVTKEGSIAGPKILEHMVDTVLYFEGDEHHAYRILHSVKNRFGAANEIGMFEMKTEGLAEVTNPSAVFLDERLPDSTGSAVVVSLEGTRPIL	not soluble
MFERLREDIQSVFHRDPAARNAFEVLTCYPGMHAIWLHRLGNALWRRDFKWLARLVSNFGRWLTGIEIHPGATIGRRFFIDHGMGIVIGETAEIGDDVTLYQGVTLGGTSWNKGKRHPTLENGVVVGAGAKVLGPFTVGAGAKIGSNAVVTKAVPAGATAVGIPGRIIVKSEDTEVEAKRKAMAEKIGFDAYGVSGDMPDPVARAIGQMLDHLQAVDERLEGMCGALTKMGSDYCAKELPALPEDDFSLEHHHHHH	soluble
MSTQMSVFLSTQAAQPQWGEKALISFAEQGATIHLQQTQDFSAIQRAARKLDNQGIRTAFLAGEGWDLESIWAFYQGYRDAKKRNTVEWKALAAAEQVELEARIKATDWTRDIINKSAEEVAPRQLATMAAEFIKSLAPDHVSYRIVKDKDLLTEGWEGIYAVGRGSERTSAMLQLDYNPTGDENAPVFACLVGKGITFDSGGYSLKPSNMMSAMKADMGGSGMITGALGLAIMRGFNKRVKLILCCAENMVSGRALKLGDIITYKNGKTVEIMNTDAEGRLVLADGLIYASEQKPQLIIDCATLTGAAKNALGNDYHALLSYDESLSQQALAAAKEENEALWALPLAEFHREMLPSNFADLSNISNGDYTPGASTAAAFLSYFVEGYQKGWLHFDCSATYRKSASDKWAAGATGMGVKMLARILMQQA	not soluble

— the DeepSol protein solubility set
